Experimental data: the supplement of paper PMC7877785
± gives the uncertainty stated by the source.

Test: self-splicing fitness, log relative to wild type (ln ratio); higher = more splicing; Tetrahymena group I intron in knt gene, E. coli kanamycin selection, DiMSum; sequences stand for … in CUCUCU…GGAGGGAAAAGUUAUCAGGCAUGCACCUGGUAGCUAGUCUUUAAACCAAUAGAUUGCAUCGGUUUAAAAGGCAAGACCGUCAAAUUGCGGGAAAGGGGUCAACAGCCGUUCAGUACCAAGUCUCAGGGGAAACUUUGAGAUGGCCUUGCAAAGGGUAUGGUAAUAAGCUGACGGACAUGGUCCUAACCACGCAGCCAAGUCCUAAGUCAACAGAUCUUCUGUUGAUAUGGAUGCAGUUCACAGACUAAAUGUCGGUCGGGGAAGAUGUAUUCUUCUCAUAAGAUAUAGUCGGACCUCUCCUUAAUGGGAGCUAGCGGAUGAAGUGAUGCAACACUGGAGCCGCUGGGAACUAAUUUGUAUGCGAAAGUAUAUUGAUUAGUUUUGGAGUACUCGUGGUCG
Summary of the method: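 Fitness was computed with DiMSum as the error-weighted combination of replicate fold changes, kanamycin versus none, each normalised to wild type. The library randomised all eight intron nucleotides of the P1ex region, with the intron placed in the knt kanamycin-resistance gene on pET-22b(+) in E. coli BL21(DE3). Six replicate transformations were grown overnight at 37°C or 30°C on LB agar with or without 25 μg/mL kanamycin, plus 100 μg/mL carbenicillin, 50 μM IPTG and 0.2% rhamnose. Pooled colonies were amplicon-sequenced on an Illumina HiSeq 2500.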

Sequence	self-splicing fitness (ln) (30 °C)	self-splicing fitness (ln) (37 °C)
GACUAGCAAUAUUACGUAAA	-0.826 ± 0.097	0.0101 ± 0.12
GACUAGCAAUAUUACGUAUC	-2.74 ± 0.11	-1.98 ± 0.12
GACUAGCAAUAUUACGUCGC	-3.63 ± 0.18	-1.94 ± 0.16
GACUAGCAAUAUUACGUGAC	-1.34 ± 0.085	-1.39 ± 0.12
GACUAGCAAUAUUACGUGCU	-3.61 ± 0.16	-1.9 ± 0.12
GAGAAGCAAUAUUACGAAAG	-4.36 ± 0.32	-1.5 ± 0.2
GAGAAGCAAUAUUACGACAU	-0.36 ± 0.013	-0.137 ± 0.033
GAGAAGCAAUAUUACGACGU	-0.944 ± 0.22	0.108 ± 0.19
GAGAAGCAAUAUUACGAGCU	-0.838 ± 0.12	-0.347 ± 0.11
GAGAAGCAAUAUUACGAUCA	-1.06 ± 0.15	-0.469 ± 0.16
GAGAAGCAAUAUUACGAUCG	-0.334 ± 0.094	-0.068 ± 0.14
GAGAAGCAAUAUUACGAUGC	-1.06 ± 0.15	-0.435 ± 0.21
GAGAAGCAAUAUUACGCGUA	-1.03 ± 0.12	-1.1 ± 0.13
GAGAAGCAAUAUUACGCUAU	-2.79 ± 0.19	-1.31 ± 0.16
GAGAAGCAAUAUUACGCUUC	-2.79 ± 0.26	-2.89 ± 0.38
GAGAAGCAAUAUUACGGAAC	-2.78 ± 0.19	-0.25 ± 0.16
GAGAAGCAAUAUUACGGAUA	-2.16 ± 0.2	-0.942 ± 0.21
GAGAAGCAAUAUUACGGAUG	-2.5 ± 0.14	-0.821 ± 0.13
GAGAAGCAAUAUUACGGCGC	0.341 ± 0.21	-0.241 ± 0.22
GAGAAGCAAUAUUACGGGAA	-2.47 ± 0.25	-1.24 ± 0.22
GAGAAGCAAUAUUACGGGAG	-2.12 ± 0.13	-1.63 ± 0.18
GAGAAGCAAUAUUACGGGGU	-3.06 ± 0.2	-3.13 ± 0.28
GAGAAGCAAUAUUACGGUCC	-2.14 ± 0.24	-1.06 ± 0.21
GAGAAGCAAUAUUACGGUUG	-2.18 ± 0.1	-1.99 ± 0.14
GAGAAGCAAUAUUACGUAAG	-2.72 ± 0.15	-1.1 ± 0.15
GAGAAGCAAUAUUACGUAUC	-3.78 ± 0.37	-3.21 ± 0.35

Sequence	self-splicing fitness (ln) (30 °C)	self-splicing fitness (ln) (37 °C)
GAGAAGCAAUAUUACGUCAA	-1.82 ± 0.11	-0.98 ± 0.11
GAGAAGCAAUAUUACGUCAC	-3.6 ± 0.29	-0.67 ± 0.24
GAGAAGCAAUAUUACGUCAG	-3.34 ± 0.23	-1.35 ± 0.18
GAGAAGCAAUAUUACGUCUA	-0.555 ± 0.076	0.35 ± 0.092
GAGAAGCAAUAUUACGUGCG	-1.71 ± 0.093	-1.02 ± 0.1
GAGAAGCAAUAUUACGUUGG	-2.35 ± 0.15	-2.66 ± 0.21
GAGCAGCAAUAUUACGAACG	-2.53 ± 0.18	-0.673 ± 0.16
GAGCAGCAAUAUUACGAAGU	-2.87 ± 0.21	-0.867 ± 0.16
GAGCAGCAAUAUUACGAGCC	-0.545 ± 0.19	-0.285 ± 0.21
GAGCAGCAAUAUUACGAGGU	-4.1 ± 0.33	-1.65 ± 0.15
GAGCAGCAAUAUUACGCAAC	-2.85 ± 0.28	-2.22 ± 0.45
GAGCAGCAAUAUUACGCAUU	-3.04 ± 0.2	-2.23 ± 0.24
GAGCAGCAAUAUUACGCCAU	-2.67 ± 0.46	-3.33 ± 0.43
GAGCAGCAAUAUUACGCCCA	-0.299 ± 0.18	0.255 ± 0.26
GAGCAGCAAUAUUACGCGGU	-3.17 ± 0.27	-0.69 ± 0.22
GAGCAGCAAUAUUACGCGUA	-0.655 ± 0.18	-0.959 ± 0.14
GAGCAGCAAUAUUACGCUCC	-2.25 ± 0.35	-0.34 ± 0.38
GAGCAGCAAUAUUACGGAAU	-3.37 ± 0.22	-2.08 ± 0.2
GAGCAGCAAUAUUACGGAGA	-4.02 ± 0.25	-2.16 ± 0.16
GAGCAGCAAUAUUACGGCAC	-0.575 ± 0.1	-0.126 ± 0.17
GAGCAGCAAUAUUACGGCGU	-0.163 ± 0.14	0.683 ± 0.18
GAGCAGCAAUAUUACGGUCA	-0.942 ± 0.11	-0.118 ± 0.11
GAGCAGCAAUAUUACGGUGC	-2.98 ± 0.18	-2.61 ± 0.18
GAGCAGCAAUAUUACGUAUC	-2.06 ± 0.087	-1.44 ± 0.091
GAGCAGCAAUAUUACGUGCU	-3.11 ± 0.2	-2.2 ± 0.23
GAGCAGCAAUAUUACGUGGG	-3.13 ± 0.24	-3.03 ± 0.27

Sequence	self-splicing fitness (ln) (30 °C)	self-splicing fitness (ln) (37 °C)
GAGCAGCAAUAUUACGUGUG	-3.28 ± 0.12	-0.789 ± 0.11
GAGGAGCAAUAUUACGACAA	-2.14 ± 0.24	-1.1 ± 0.27
GAGGAGCAAUAUUACGAGCU		-1.77 ± 0.47
GAGGAGCAAUAUUACGAUCA	-2.5 ± 0.22	-1.59 ± 0.19
GAGGAGCAAUAUUACGCACA	-1.61 ± 0.32	-0.287 ± 0.23
GAGGAGCAAUAUUACGCGUG	-1.55 ± 0.19	-0.66 ± 0.23
GAGGAGCAAUAUUACGCUAA	-1.86 ± 0.32	
GAGGAGCAAUAUUACGCUAU	-2.8 ± 0.27	-2.05 ± 0.45
GAGGAGCAAUAUUACGCUGC	-4.13 ± 0.38	
GAGGAGCAAUAUUACGGAAC	-3.68 ± 0.44	-0.46 ± 0.28
GAGGAGCAAUAUUACGGCAA	-2.41 ± 0.21	-0.766 ± 0.26
GAGGAGCAAUAUUACGGGCA	-1.33 ± 0.32	-3.44 ± 0.47
GAGGAGCAAUAUUACGGGUA		-2.26 ± 0.36
GAGGAGCAAUAUUACGGGUU	-1.74 ± 0.14	-2.23 ± 0.22
GAGGAGCAAUAUUACGGUUA	-2.45 ± 0.28	-2.2 ± 0.3
GAGGAGCAAUAUUACGUAGC	-0.914 ± 0.2	-1.02 ± 0.37
GAGGAGCAAUAUUACGUCAG	-3.5 ± 0.37	
GAGGAGCAAUAUUACGUGGG	-3.08 ± 0.36	-1.91 ± 0.4
GAGGAGCAAUAUUACGUUAU	-3.32 ± 0.23	-2.96 ± 0.32
GAGGAGCAAUAUUACGUUUC	-2.74 ± 0.42	
GAGGAGCAAUAUUACGUUUG	-3.33 ± 0.16	-1.92 ± 0.13
GAGUAGCAAUAUUACGAAUA	-2 ± 0.14	-1.76 ± 0.14
GAGUAGCAAUAUUACGAGCU	-1.64 ± 0.073	-0.0858 ± 0.11
GAGUAGCAAUAUUACGAGGG	-3.5 ± 0.44	-1.94 ± 0.28
GAGUAGCAAUAUUACGAGUC	-3.59 ± 0.34	-1.48 ± 0.27
GAGUAGCAAUAUUACGCACG	-1.77 ± 0.21	
